From patent US12527847B1, “Compositions and methods for reducing blood ethanol concentration through alcohol dehydrogenase and acetaldehyde scavengers” (Goa Therapeutics Corporation, priority 2025, dated 2026)

What was measured:
[1] = In vitro reduction of EtOH by ADH and AcH scavengers (NAD/NADH-based enzymatic assay, 340 nm); assay type: biochemical; conditions: 200 U ADH, 455 mg scavenger mixture, pH 7.4, 37° C., 30 minutes
Method: (§1) An in vitro study was conducted to evaluate the effect of a combined formulation of ADH and AcH scavengers on the reduction of EtOH and AcH concentrations. The study was designed to assess the enzymatic conversion of EtOH to AcH by ADH and the subsequent removal of AcH by scavengers. The experiment was performed using enzyme preparation from yeast (Saccharomyces cerevisiae).
(§2) The following materials and reagents were used: EtOH 99.9% pure, analytical grade and ADH purified from Saccharomyces cerevisiae (500 U/mg protein) (SEQ ID NO: 1, see Table 1). AcH scavenger-containing composition (total 455 mg): Thiamine hydrochloride (Vitamin B1): 100 mg; Glutathione (GSH): 15 mg; NAC (N-Acetyl-Cysteine) OR L-Cysteine: 200 mg; α-Lipoic acid: 40 mg; Pyridoxine hydrochloride (Vitamin B6): 100 mg and buffer Solution: 100 mM sodium phosphate buffer, pH 7.4.
(§3) The experiment was conducted in triplicate with appropriate controls to ensure reproducibility. […]
(§4) EtOH concentration was measured using a NAD/NADH-based enzymatic assay with a spectrophotometer at 340 nm. AcH concentration was measured using a modified Hantzsch reaction assay, which detects AcH at 412 nm.

[2] = In vitro AcH concentration after ADH and AcH scavengers (modified Hantzsch reaction assay, 412 nm); assay type: biochemical; conditions: 100 mM EtOH start, 200 U ADH, 455 mg scavenger mixture, pH 7.4, 37° C., 30 minutes
Method: as §1, §2, §3, §4

[3] = In vivo blood EtOH concentration in rodents after oral EtOH; set-up: species or system Sprague-Dawley rats; conditions: rat blood, 2 g/kg EtOH oral, ADH 600 U/kg IP
Method: The study was performed to evaluate the efficacy of a combined formulation of ADH and AcH scavengers in reducing blood EtOH and AcH concentrations in an in vivo rodent model.
12 male Sprague-Dawley rats (200 to 250 g), housed under standard conditions (12-hour light/dark cycle, 22±2° C.) were administered with 2 g/kg EtOH orally via gavage.
Groups (n=3): Group 1 (Control): EtOH only (no ADH or scavengers). Group 2: EtOH+ADH (600 U/kg, intraperitoneally). Group 3: EtOH+AcH scavenger-containing composition. Group 4 (Combined): EtOH+ADH (600 U/kg, IP)+AcH scavenger-containing composition.
Blood samples were collected from the tail vein at 0, 15, 30, 60, and 120 minutes post-EtOH administration. EtOH concentration was measured using a NAD/NADH-based enzymatic assay.

[4] = test system: ADH purified from Saccharomyces cerevisiae; test: Enzyme kinetics of ADH with AcH scavengers (Michaelis-Menten, NADH production at 340 nm); assay type: biochemical; conditions: pH 7.4, 37° C., 5 min incubation
Method: ADH purified from Saccharomyces cerevisiae (500 U/mg protein) was used. EtOH Concentrations: 5, 10, 20, 50, 100, 200 mM. Reaction Volume: 1 mL with 100 mM sodium phosphate buffer (pH 7.4). 37° C., 5 min incubation. NADH production measured at 340 nm using a spectrophotometer. Two groups: a) control ADH+EtOH; and b) ADH+EtOH+AcH scavenger mixture.

[5] = test system: ADH; test: Stability and degradation profile of ADH in the presence of AcH scavengers over time; assay type: physicochemical, Saccharomyces cerevisiae; conditions: 37° C., gentle shaking
Method: Conditions: 37° C. for up to 60 min with gentle shaking (100 rpm), ADH activity assessed via NADH production (340 nm). AcH scavenger-containing composition (total 455 mg): Thiamine hydrochloride (Vitamin B1): 100 mg; Glutathione (GSH): 15 mg; NAC (N-Acetyl-Cysteine) OR L-Cysteine: 200 mg; α-Lipoic acid: 40 mg; Pyridoxine hydrochloride (Vitamin B6): 100 mg and buffer Solution: 100 mM sodium phosphate buffer, pH 7.4.

[6] = test system: HepG2 Liver Cells; test: HepG2 cell viability under EtOH exposure (MTT assay); assay type: cell-based; conditions: HepG2, 100 mM EtOH for 24 hours
Method: (§5) Cells were exposed to 100 mM EtOH for 24 hours. Group 1 (Control): EtOH only; Group 2: EtOH+ADH; Group 3: EtOH+AcH scavenger-containing composition; and Group 4 (Combined): EtOH+ADH+AcH scavenger-containing composition.
(§6) Cell viability was detected by MTT assay (absorbance at 570 nm). ROS (Reactive Oxygen Species) was detected by DCFH-DA assay (fluorescence at 488 nm).

[7] = test system: HepG2 Liver Cells; test: HepG2 ROS under EtOH exposure (DCFH-DA assay); assay type: cell-based; conditions: HepG2, 100 mM EtOH for 24 hours
Method: as §5, §6

B1: ADH: ADH purified from Saccharomyces cerevisiae (500 U/mg protein), SEQ ID NO: 1 (protein, listed as Saccharomyces cerevisiae)
chain: MSTAVAVLTSNADTDIFAKPVAGVDGSHVIDAAAVFGLGKETVVDALKDYKTGATTPAVAQKLGVEGAKALVGVPQKVESNDFFVAKAKDAGTEVIVGGMGGVGLSAIGASLKPGYELDKAKIEVASKLAAGAKVTVITPQCGHEVIVGVPPDSQNLSMRIAQLGGKSPFTKEKDLNYFAVEKAKELGATGSKIINLIMGKVMPEGQKIHLGHEIVGDLGVVTKDAASGKLPIISIGHEAVKNAVKVLENAELEGLTKEGAKVTVVGNPQIYSDDHVAVAGTSLSTLNKLLDAIKKADTSKPIQEVLSDKAKEVGIEEGLMTTVHAITGAAGAASALPFGVTAAL
With B1 the “EtOH Final” value ([1]; 100 mM EtOH start) was 85.8 mM, the “EtOH Reduction (%)” value ([1]; 100 mM EtOH, 1 mL) was 14.2% and the “AcH Final” value [2] was 235 µM. The “EtOH concentration (% of control)” value ([3]; 0 min) was 95 % of control, the “EtOH concentration (% of control)” value ([3]; 15 min) was 85.2 % of control and the “EtOH concentration (% of control)” value ([3]; 30 min) was 75.8 % of control. The “EtOH concentration (% of control)” value ([3]; 60 min) was 68 % of control, the “EtOH concentration (% of control)” value ([3]; 120 min) was 44.8 % of control and the Vmax ([4]; EtOH 5-200 mM) was 105.2 µmol/min. The kcat ([4]; EtOH 5-200 mM) was 105.2, the Km ([4]; substrate EtOH 5-200 mM) was 32.5 mM and the “ADH activity (% of t = 0)” value ([5]; 30 min) was 87 % of t = 0. For the same molecule, the “ADH activity (% of t = 0)” value ([5]; 60 min) was 62 % of t = 0, the “Cell viability (%)” value ([6]; MTT) was 67.1% and the “Overall Impact on Viability (in words)” value ([6]; results interpretation) was “Viability increases”. For the same molecule, the “ROS (% of control)” value ([7]; DCFH-DA, control = EtOH only) was 85.6 % of control and the “ROS Impact (in words)” value ([7]; results interpretation) was “Moderate ROS”.
